Measured values from article PMC10054925 (bioRxiv, 2023).

Biological target: the molecule itself
Test: SEC

B1: Vibrio cholerae HlyU (VcHlyU), transcriptional activator of hlyA (natural protein)
chain: MPYLKGAPMNLQEMEKNSAKAVVLLKAMANERRLQILCMLLDNELSVGELSSRLELSQSALSQHLAWLRRDGLVNTRKEAQTVFYTLSSTEVKAMIELLHRLYCQANQ
- stoichiometry N: 2
